# Target: Gag of the HIV-1 YP- mutant (HIV-1 (pNL4-3))
substance,measurement,value
Flag-DUb-TSG101 (from UniProt P10220 15-260),"release of HIV-1 YP- virus from 293T cells co-expressing Flag-DUb-TSG101 (Figure 2A, lane 3); inactive DUb*-TSG101 and DUb-TSG101 M95A had no effect",> 95%

# From publication PMC3751857
